{"source": "patent US20210107989A1", "about": "“METHODS FOR TREATING CD73HI TUMORS” (CORVUS PHARMACEUTICALS, INC., priority 2017, published 2021)", "target": "T1, CD73 on cells (MDA-MB-231 cells; human PBMC) (human, UniProt P21589 27-549)", "T1 sequence (looked up)": "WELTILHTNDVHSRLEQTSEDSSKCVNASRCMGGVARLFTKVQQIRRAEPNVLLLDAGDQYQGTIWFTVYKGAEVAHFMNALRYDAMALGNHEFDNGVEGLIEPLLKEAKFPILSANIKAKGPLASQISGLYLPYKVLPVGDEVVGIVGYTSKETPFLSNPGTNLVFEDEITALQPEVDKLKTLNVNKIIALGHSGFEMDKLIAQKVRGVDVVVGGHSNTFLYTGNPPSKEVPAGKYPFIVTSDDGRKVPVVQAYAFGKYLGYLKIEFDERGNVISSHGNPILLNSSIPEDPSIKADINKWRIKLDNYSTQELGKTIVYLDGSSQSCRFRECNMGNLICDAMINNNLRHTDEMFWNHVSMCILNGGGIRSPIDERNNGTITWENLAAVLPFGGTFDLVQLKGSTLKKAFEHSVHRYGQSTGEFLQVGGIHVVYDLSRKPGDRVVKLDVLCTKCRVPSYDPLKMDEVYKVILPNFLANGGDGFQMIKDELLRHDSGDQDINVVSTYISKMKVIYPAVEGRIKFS", "test": "cell-based or functional assay"}
{"binder": "CPX-006 (antibody, human IgG1, kappa, N297Q, V domains shown) VH: QVQLVQSGAEVEKPGASVKVSCKASGYTFTSYWITWVRQAPGQGLEWMGDIYPGSGNTNYNEKFKTRVTITADKSTSTAYMELSSLRSEDTAVYYCAKEGGLTTEDYALDYWGQGTLVTVSS VL: EIVLTQSPATLSLSPGERATLSCRASKNVSTSGYSYMHWYQQKPGQAPRLLIYLASNLESGIPPRFSGSGYGTDFTLTINNIESEDAAYYFCQHSRELPFTFGQGTKVEIKR", "values": [{"measurement": "EC50, T cell proliferation (human PBMC with AMP)", "result": 189, "unit": "nM"}, {"measurement": "EC50, interferon gamma production (human PBMC with AMP)", "result": 137, "unit": "nM"}]}
